The values that follow come from patent publication US20090075291A1, “PEPTIDE-BASED REGULATION OF GAP JUNCTIONS” (The Research Foundation of State University of New York, priority 2006, published 2009).

One experiment has as its target T1, Cx43CT (Rattus norvegicus, UniProt P08050).
T1 construct: GST (N, cleaved yes); made in house; host or cells: E. coli BL-21
In words: Non-biased 12-mer phage display screening against Cx43CT. In kind it is binding. The conditions noted are these: 156 phage plaques sequenced after three rounds; pH 6.5. On the procedure:
A “library” of bacteriophage, displaying ˜[…] of 2.7×10^9 random 12-mer peptides (Ph.D.-12™ Phage display peptide library kit; New England BioLabs Inc.) was utilized. Wells in 24-well plates were coated with 15 μg of recombinant CT and blocked with 5 mg/ml BSA. After removing the unbound viruses by washing with Tris buffered saline containing 0.5% tween-20 (TBS-T), low affinity binders were eluted with a solution of TBS-containing Cx43CT at a concentration of 100 μg/ml. High affinity binders were recovered by overlaying the well with a culture of E. coli, to allow the tightly bound phage to infect the bacteria. This culture was amplified and the virus was precipitated with PEG. The amplified product was used for the subsequent round of panning. All steps were conducted at pH 6.5 unless otherwise indicated.
After three rounds of selection and amplification, the phage recovered from the last round of binding were grown on a lawn of E. coli for plaque purification. Each plaque, representing a single clone, was picked and amplified. The phage were isolated and analyzed by DNA sequencing.
The library was presented to Cx43CT. After three rounds of selection and amplification, DNA of 156 phage plaques was purified and sequenced. Of the estimated 2.7×10^9 different sequences in the library, 48 unique sequences were recovered. […]

Experiment [1] relates to junctional conductance (Gj) of cell pairs. In words: Heptanol-induced uncoupling of cell pairs, junctional conductance time course. In kind it is cell-based. The conditions noted are these: compared with cell pairs without peptide. On the procedure: Cells were treated with heptanol to reduce coupling and with NL.RXPE.
A further experiment has as its target T2, cardiac Cx43 (Rattus norvegicus, UniProt P08050).
T2 construct: from tissue; host or cells: rat heart lysate
In words: GST pulldown of Cx43 from rat heart lysate, western blot. The experiment is classed as binding. The following applies: GST fusion on glutathione beads, western blot for Cx43. The source says:
cDNA coding for […] (SEQ ID NO:11) (“NL.RXPE”) was cloned in-frame with the cDNA for glutathione S-transferase (“GST”). The resulting fusion protein, GST-NL.RXPE was produced in bacteria, and purified by conventional methods. GST-NL.RXPE was bound to glutathione beads and exposed to a rat heart lysate. After washing of the supernatant, the pellets were heated to separate the proteins from the beads. Two additional proteins were produced in parallel, and used as control: GST alone (not fused to any peptide) and GST fused to RXPE. After exposure to heart lysate, the resulting complexes that were “fished out” by the bait proteins were run on SDS-PAGE, transferred to a nitrocellulose membrane, and probed with an antibody for Cx43. […] It is expected that other peptides of formula A-An interact with Cx43, and may be used in the methods of the present invention.
Background: A western blot detects proteins with antibodies after separation by electrophoresis.

T2 sequence (P08050 whole entry): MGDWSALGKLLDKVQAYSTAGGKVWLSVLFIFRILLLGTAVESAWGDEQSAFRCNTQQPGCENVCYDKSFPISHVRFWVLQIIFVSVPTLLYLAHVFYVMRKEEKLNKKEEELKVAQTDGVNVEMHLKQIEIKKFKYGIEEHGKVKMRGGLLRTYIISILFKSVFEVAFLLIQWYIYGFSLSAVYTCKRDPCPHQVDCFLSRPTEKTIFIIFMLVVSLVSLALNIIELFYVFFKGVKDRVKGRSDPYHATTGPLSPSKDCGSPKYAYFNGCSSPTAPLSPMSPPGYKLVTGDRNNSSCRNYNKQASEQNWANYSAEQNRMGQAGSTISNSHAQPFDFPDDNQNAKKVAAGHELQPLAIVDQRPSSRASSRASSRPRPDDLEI
T1 sequence (P08050 255-382): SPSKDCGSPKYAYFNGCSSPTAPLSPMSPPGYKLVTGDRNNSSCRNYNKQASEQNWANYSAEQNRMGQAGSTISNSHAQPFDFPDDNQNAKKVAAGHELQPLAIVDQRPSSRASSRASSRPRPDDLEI

For the sequence “PRPTMGNLPDVL (Peptide sequence from phage library)”, in the experiment with Cx43CT, the “Number of phage plaques from which the sequence was recovered” value turned out to be 45 plaques.

Consider “SDDLRSPQLHNHMVRRKPRNPR (RXP-containing peptide) [NL.RXPE]”, for which, in experiment [1], the “Rate of heptanol-induced uncoupling (normalized Gj)” value is “uncoupled at a much slower rate”. The “Recovery of Cx43 with GST-fused peptide as bait” value in the experiment with cardiac Cx43 was “Cx43 was also recovered”.
